Test results taken from article doi:10.1101/373860 (bioRxiv, 2018).

Target: the molecule itself
Assay: cryo-EM structure

B1: Arabidopsis thaliana two-pore channel 1 with D240N, D454N, E528Q (AtTPC1DDE), deletion of residues 2-11 (natural protein, UniProt Q94KI8 1-733, looked up)
chain: MGGGGTDRVRRSEAITHGTPFQKAAALVDLAEDGIGLPVEILDQSSFGESARYYFIFTRLDLIWSLNYFALLFLNFFEQPLWCEKNPKPSCKDRDYYYLGELPYLTNAESIIYEVITLAILLVHTFFPISYEGSRIFWTSRLNLVKVACVVILFVDVLVDFLYLSPLAFDFLPFRIAPYVRVIIFILSIRELRDTLVLLSGMLGTYLNILALWMLFLLFASWIAFVMFENTQQGLTVFTSYGATLYQMFILFTTSNNPDVWIPAYKSSRWSSVFFVLYVLIGVYFVTNLILAVVYDSFKEQLAKQVSGMDQMKRRMLEKAFGLIDSDKNGEIDKNQCIKLFEQLTNYRTLPKISKEEFGLIFDELDDTRDFKINKDEFADLCQAIALRFQKEEVPSLFEHFPQIYHSALSQQLRAFVRSPNFGYAISFILIINFIAVVVETTLNIEESSAQKPWQVAEFVFGWIYVLEMALKIYTYGFENYWREGANRFDFLVTWVIVIGETATFITPDENTFFSNGQWIRYLLLARMLRLIRLLMNVQRYRAFIATFITLIPSLMPYLGTIFCVLCIYCSIGVQVFGGLVNAGNKKLFETELAEDDYLLFNFNDYPNGMVTLFNLLVMGNWQVWMESYKDLTGTWWSITYFVSFYVITILLLLNLVVAFVLEAFFTELDLEEEEKCQGQDSQEKRNRRRSAGSKSRSQRVDTLLHHMLGDELSKPECSTSDT
stoichiometry N: 2
